# ± gives the standard deviation of the averaged measurements.
# Experiment: total protein half-life in vivo (active degradation + dilution); higher = more stable protein
# [1] = E. coli NCM3722 delta-smpB, growth: N-lim chemostat, doubling time 6 h
# [2] = wild type E. coli NCM3722, growth: C-lim chemostat, doubling time 3 h
# [3] = wild type E. coli NCM3722, growth: C-lim chemostat, doubling time 6 h
# [4] = wild type E. coli NCM3722, growth: C-lim chemostat, doubling time 12 h
# [5] = wild type E. coli NCM3722, growth: P-lim chemostat, doubling time 6 h
# [6] = wild type E. coli NCM3722, growth: P-lim chemostat, doubling time 12 h
# [7] = E. coli NCM3722 delta-clpP delta-lon delta-hslV, growth: N-lim chemostat, doubling time 6 h
# [8] = E. coli NCM3722 delta-clpP, growth: N-lim chemostat, doubling time 6 h
# [9] = E. coli NCM3722 delta-hslV, growth: N-lim chemostat, doubling time 6 h
# [10] = E. coli NCM3722 delta-lon, growth: N-lim chemostat, doubling time 6 h
# [11] = wild type E. coli NCM3722, growth: N-lim chemostat, doubling time 6 h
# [12] = wild type E. coli NCM3722, growth: N-lim chemostat, doubling time 12 h
Sequence,total protein half-life in vivo [1] [h],total protein half-life in vivo [2] [h],total protein half-life in vivo [3] [h],total protein half-life in vivo [4] [h],total protein half-life in vivo [5] [h],total protein half-life in vivo [6] [h],total protein half-life in vivo [7] [h],total protein half-life in vivo [8] [h],total protein half-life in vivo [9] [h],total protein half-life in vivo [10] [h],total protein half-life in vivo [11] [h],total protein half-life in vivo [12] [h]
MSKSNPSEVKLAVPTSGGFSGLKSLNLQVFVMIAAIIAIMLFFTWTTDGAYLSARNVSNLLRQTAITGILAVGMVFVIISAEIDLSVGSMMGLLGGVAAICDVWLGWPLPLTIIVTLVLGLLLGAWNGWWVAYRKVPSFIVTLAGMLAFRGILIGITNGTTVSPTSAAMSQIGQSYLPASTGFIIGALGLMAFVGWQWRGRMRRQALGLQSPASTAVVGRQALTAIIVLGAIWLLNDYRGVPTPVLLLTLLLLGGMFMATRTAFGRRIYAIGGNLEAARLSGINVERTKLAVFAINGLMVAIAGLILSSRLGAGSPSAGNIAELDAIAACVIGGTSLAGGVGSVAGAVMGAFIMASLDNGMSMMDVPTFWQYIVKGAILLLAVWMDSATKRRS [P0AGI4],4.37 ± 0.55,3.44 ± 0.11,5.06 ± 1.1,9.1 ± 0.54,4.71 ± 0.42,8.47,,,,,,
MSANTEAQGSGRGLEAMKWVVVVALLLVAIVGNYLYRDIMLPLRALAVVILIAAAGGVALLTTKGKATVAFAREARTEVRKVIWPTRQETLHTTLIVAAVTAVMSLILWGLDGILVRLVSFITGLRF [P0AG96],4.69 ± 0.097,2.81 ± 0.067,5.11 ± 0.16,9.61,4.43,8.75 ± 1.2,4.72,3.93,4.78 ± 0.21,4.6239 ± 0.0021,4.48 ± 0.26,8.61 ± 1.6
MALLNIFDIAGSALTAQSQRLNVAASNLANADSVTGPDGQPYRAKQVVFQVNAAPGAATGGVKVADVIESQAPDKLVYEPGNPLADAKGYVKMPNVDVVGEMVNTMSASRSYQANVEVLNTVKSMMLKTLTLGQ [P0ABX2],> 8,0.544 ± 0.33,0.417,1.79 ± 0.53,,,,> 8,,,3.6,
MAGKTMIPLLAFAAWSGTGKTTLLKKLIPALCARGIRPGLIKHTHHDMDVDKPGKDSYELRKAGAAQTIVASQQRWALMTETPDEEELDLQFLASRMDTSKLDLILVEGFKHEEIAKIVLFRDGAGHRPEELVIDRHVIAVASDVPLNLDVALLDINDVEGLADFVVEWMQKQNG,3.88 ± 0.7,3.22 ± 0.15,5.23 ± 0.18,9.51,5.85,11 ± 0.32,4.44 ± 0.4,4.61,4.37 ± 0.056,4.48 ± 0.64,4.01 ± 0.23,5.54 ± 1.1
MKTKVAAIYGKRDVRLRVFELPEITDNELLVSVISDSVCLSTWKAALLGSEHKRVPDDLENHPVITGHECAGVIVEVGKNLTGKYKKGQRFVLQPAMGLPSGYSAGYSYEYFGGNATYMIIPEIAINLGCVLPYHGSYFAAASLAEPMCCIIGAYHANYHTTQYVYEHRMGVKPGGNIALLACAGPMGIGAIDYAINGGIQPSRVVVVDIDDKRLAQVQKLLPVELAASKGIELVYVNTKGMSDPVQMLRALTGDAGFDDIFVYAAVPAVVEMADELLAEDGCLNFFAGPTDKNFKVPFNFYNVHYNSTHVVGTSGGSTDDMKEAIALSATGQLQPSFMVTHIGGLDAVPETVLNLPDIPGGKKLIYNGVTMPLTAIADFAEKGKTDPLFKELARLVEETHGIWNEQAEKYLLAQFGVDIGEAAQ,,,,,,,6.04 ± 0.11,,,,,
MKLQKQLLEAVEHKQLRPLDVQFALTVAGDEHPAVTLAAALLSHDAGEGHVCLPLSRLENNEASHPLLATCVSEIGELQNWEECLLASQAVSRGDEPTPMILCGDRLYLNRMWCNERTVARFFNEVNHAIEVDEALLAQTLDKLFPVSDEINWQKVAAAVALTRRISVISGGPGTGKTTTVAKLLAALIQMADGERCRIRLAAPTGKAAARLTESLGKALRQLPLTDEQKKRIPEDASTLHRLLGAQPGSQRLRHHAGNPLHLDVLVVDEASMIDLPMMSRLIDALPDHARVIFLGDRDQLASVEAGAVLGDICAYANAGFTAERARQLSRLTGTHVPAGTGTEAASLRDSLCLLQKSYRFGSDSGIGQLAAAINRGDKTAVKTVFQQDFTDIEKRLLQSGEDYIAMLEEALAGYGRYLDLLQARAEPDLIIQAFNEYQLLCALREGPFGVAGLNERIEQFMQQKRKIHRHPHSRWYEGRPVMIARNDSALGLFNGDIGIALDRGQGTRVWFAMPDGNIKSVQPSRLPEHETTWAMTVHKSQGSEFDHAALILPSQRTPVVTRELVYTAVTRARRRLSLYADERILSAAIATRTERRSGLAALFSSRE,2.739 ± 0.015,2.89 ± 0.43,4.39 ± 0.1,6.98 ± 0.28,4.36 ± 0.065,7.54 ± 0.6,4.81 ± 0.19,4.01 ± 1.1,2.9 ± 0.19,3.33 ± 0.44,2.97 ± 0.079,4.37 ± 0.29
